According to US20230050972A1 (MOMENTA PHARMACEUTICALS, published 2023):

T1: in-house generated I domain of α11β1 (human, UniProt Q9UKX5 159-349, limits assumed)
T1 construct: domain: I domain; also called human α11β1 I domain; α11β1 I Domain
T1 sequence (looked up): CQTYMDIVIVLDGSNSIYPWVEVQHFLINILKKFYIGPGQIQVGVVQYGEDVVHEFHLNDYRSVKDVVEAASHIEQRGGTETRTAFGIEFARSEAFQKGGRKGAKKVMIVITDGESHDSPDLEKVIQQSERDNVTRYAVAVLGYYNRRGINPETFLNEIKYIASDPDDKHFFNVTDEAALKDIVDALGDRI


Tests used:
[1] = biological target: T2, α11β1 on human myofibroblasts (MF) (human, UniProt Q9UKX5 23-1188; P05556 21-798); assay: FACS on human myofibroblasts
T2 construct: whole, on cells
Protocol: Human Pulmonary Fibroblasts (ScienCell) were cultured in complete Fibroblast Growth Medium (ScienCell) until 80% confluent in T-150 flasks. Cells were washed and harvested using Accutase. Cells were seeded into T-150 flasks at 7,500 cells/cm² in complete FGF and cultured for 72 hours. Cells were then washed and starved in serum reduced medium for 24 hours. After starvation, cells were treated with TGFβ-1 (R&D Systems) for 72 hours. Cells were harvested using Accutase and seeded in 96-well conical bottom plates. Cells were blocked with Heat Inactived Fetal Bovine Serum (Gibco) for 30 minutes at 4° C. Cells were then incubated with anti-α11 antibodies at the doses described in each figure for 30 minutes at 4° C. A human anti-α11 antibody (Creative BioLabs) was included as a positive control as well as the appropriate IgG isotype negative controls. Cells were washed twice and incubated with PE conjugated secondary antibodies specific to the IgG class of the anti-α11 antibodies being tested for 30 minutes at 4° C. Cells were washed twice and fixed in 1% PFA for 30 minutes. Cells were acquired on a FACS Verse […]. Data were analyzed by gating on single cells and determining the geometric Mean Fluorescence Intensity (gMFI) in the PE channel for each sample.

recombinant human α11β1 = biological target: T3, recombinant human α11β1 (human, UniProt Q9UKX5 23-1141; P05556 21-728); assay: ELISA on recombinant human α11β1
T3 construct: Coated in ELISA; ELISA and SPR material treated as one molecule; also called HIS-tagged human α11β1; integrin alpha 11 beta 1
Protocol: (§1) 0.25 μg/mL of target antigen (recombinant human or mouse α11β1) was plated in a 96-well plate over night at 4° C. Plates were washed (PBS with 0.1% Tween-20), blocked (PBS with 2% BSA and 0.05% Tween-20) for 1 hour at room temperature and incubated with a range of antibody concentrations for 1 hour at room temperature. Subsequently, plates were washed and incubated with biotinylated anti-rabbit/mouse/human IgG in a 1:1000 dilution buffer and incubated for 1 hour at room temperature. After washing the plates, Streptavidin HRP was added at 1:200 in dilution buffer and incubated for 1 hour at room temperature. Ultra TMB ELISA substrate solution was added and the plates incubated for 5 minutes on a plate shaker. The reaction was stopped by adding stop solution to each well and plates were read at 450 nm.

recombinant mouse α11β1 = biological target: T4, recombinant mouse α11β1 (mouse, UniProt P61622 23-1141; P09055 21-728, limits assumed); assay: ELISA on recombinant mouse α11β1
T4 construct: also called murine α11β1
Protocol: as §1

[2] = biological target: T1, in-house generated I domain of α11β1; assay: binding to isolated I domain

T2 sequence (Q9UKX5 23-1188, chain 1 of 2): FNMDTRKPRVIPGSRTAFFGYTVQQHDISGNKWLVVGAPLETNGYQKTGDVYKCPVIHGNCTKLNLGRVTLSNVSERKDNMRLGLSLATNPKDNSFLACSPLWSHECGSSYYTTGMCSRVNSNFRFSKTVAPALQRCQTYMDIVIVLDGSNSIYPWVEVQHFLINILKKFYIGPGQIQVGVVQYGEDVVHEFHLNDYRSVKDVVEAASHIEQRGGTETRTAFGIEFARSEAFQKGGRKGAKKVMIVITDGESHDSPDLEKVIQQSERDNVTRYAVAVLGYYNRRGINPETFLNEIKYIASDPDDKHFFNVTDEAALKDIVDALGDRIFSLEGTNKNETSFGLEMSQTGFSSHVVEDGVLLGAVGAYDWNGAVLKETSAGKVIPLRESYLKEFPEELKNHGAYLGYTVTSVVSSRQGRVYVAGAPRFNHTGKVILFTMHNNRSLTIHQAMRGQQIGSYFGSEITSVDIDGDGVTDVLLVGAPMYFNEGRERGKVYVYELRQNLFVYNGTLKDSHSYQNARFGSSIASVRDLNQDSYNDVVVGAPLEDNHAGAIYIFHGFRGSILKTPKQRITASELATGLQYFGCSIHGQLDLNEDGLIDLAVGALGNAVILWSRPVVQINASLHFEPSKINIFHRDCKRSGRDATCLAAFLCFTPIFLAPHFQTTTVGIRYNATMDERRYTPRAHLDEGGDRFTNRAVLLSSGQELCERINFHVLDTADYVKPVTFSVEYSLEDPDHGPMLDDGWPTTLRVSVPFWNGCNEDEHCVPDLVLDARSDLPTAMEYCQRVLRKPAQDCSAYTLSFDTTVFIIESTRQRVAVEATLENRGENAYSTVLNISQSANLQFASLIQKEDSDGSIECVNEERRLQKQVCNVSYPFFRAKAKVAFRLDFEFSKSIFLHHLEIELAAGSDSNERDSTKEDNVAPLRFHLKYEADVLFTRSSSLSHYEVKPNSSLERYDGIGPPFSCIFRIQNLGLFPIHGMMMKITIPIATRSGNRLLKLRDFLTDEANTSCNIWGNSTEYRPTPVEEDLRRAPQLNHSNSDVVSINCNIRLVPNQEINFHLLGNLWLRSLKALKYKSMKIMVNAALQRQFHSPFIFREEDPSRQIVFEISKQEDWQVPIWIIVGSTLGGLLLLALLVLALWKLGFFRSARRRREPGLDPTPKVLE
T2 sequence (P05556 21-798, chain 2 of 2): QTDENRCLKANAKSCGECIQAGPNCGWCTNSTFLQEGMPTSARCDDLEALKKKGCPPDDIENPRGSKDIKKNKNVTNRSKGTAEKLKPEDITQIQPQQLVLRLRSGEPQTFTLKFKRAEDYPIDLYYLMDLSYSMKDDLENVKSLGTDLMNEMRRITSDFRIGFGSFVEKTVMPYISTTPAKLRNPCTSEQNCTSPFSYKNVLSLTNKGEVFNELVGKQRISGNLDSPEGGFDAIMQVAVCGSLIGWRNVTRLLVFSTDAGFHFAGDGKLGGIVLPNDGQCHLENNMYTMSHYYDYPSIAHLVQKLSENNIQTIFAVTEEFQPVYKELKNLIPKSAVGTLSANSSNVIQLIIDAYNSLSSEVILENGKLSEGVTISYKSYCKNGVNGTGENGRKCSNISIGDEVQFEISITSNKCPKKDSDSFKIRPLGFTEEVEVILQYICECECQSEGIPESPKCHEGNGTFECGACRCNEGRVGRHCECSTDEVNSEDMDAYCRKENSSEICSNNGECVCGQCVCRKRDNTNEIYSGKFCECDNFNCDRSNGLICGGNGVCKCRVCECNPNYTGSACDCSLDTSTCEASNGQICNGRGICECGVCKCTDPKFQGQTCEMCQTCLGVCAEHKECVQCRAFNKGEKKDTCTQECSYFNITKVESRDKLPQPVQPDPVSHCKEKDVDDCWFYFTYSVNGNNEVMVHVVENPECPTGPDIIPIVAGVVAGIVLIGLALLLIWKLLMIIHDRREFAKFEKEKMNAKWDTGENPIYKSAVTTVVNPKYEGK
T4 sequence (P61622 23-1141 limits assumed, chain 1 of 2): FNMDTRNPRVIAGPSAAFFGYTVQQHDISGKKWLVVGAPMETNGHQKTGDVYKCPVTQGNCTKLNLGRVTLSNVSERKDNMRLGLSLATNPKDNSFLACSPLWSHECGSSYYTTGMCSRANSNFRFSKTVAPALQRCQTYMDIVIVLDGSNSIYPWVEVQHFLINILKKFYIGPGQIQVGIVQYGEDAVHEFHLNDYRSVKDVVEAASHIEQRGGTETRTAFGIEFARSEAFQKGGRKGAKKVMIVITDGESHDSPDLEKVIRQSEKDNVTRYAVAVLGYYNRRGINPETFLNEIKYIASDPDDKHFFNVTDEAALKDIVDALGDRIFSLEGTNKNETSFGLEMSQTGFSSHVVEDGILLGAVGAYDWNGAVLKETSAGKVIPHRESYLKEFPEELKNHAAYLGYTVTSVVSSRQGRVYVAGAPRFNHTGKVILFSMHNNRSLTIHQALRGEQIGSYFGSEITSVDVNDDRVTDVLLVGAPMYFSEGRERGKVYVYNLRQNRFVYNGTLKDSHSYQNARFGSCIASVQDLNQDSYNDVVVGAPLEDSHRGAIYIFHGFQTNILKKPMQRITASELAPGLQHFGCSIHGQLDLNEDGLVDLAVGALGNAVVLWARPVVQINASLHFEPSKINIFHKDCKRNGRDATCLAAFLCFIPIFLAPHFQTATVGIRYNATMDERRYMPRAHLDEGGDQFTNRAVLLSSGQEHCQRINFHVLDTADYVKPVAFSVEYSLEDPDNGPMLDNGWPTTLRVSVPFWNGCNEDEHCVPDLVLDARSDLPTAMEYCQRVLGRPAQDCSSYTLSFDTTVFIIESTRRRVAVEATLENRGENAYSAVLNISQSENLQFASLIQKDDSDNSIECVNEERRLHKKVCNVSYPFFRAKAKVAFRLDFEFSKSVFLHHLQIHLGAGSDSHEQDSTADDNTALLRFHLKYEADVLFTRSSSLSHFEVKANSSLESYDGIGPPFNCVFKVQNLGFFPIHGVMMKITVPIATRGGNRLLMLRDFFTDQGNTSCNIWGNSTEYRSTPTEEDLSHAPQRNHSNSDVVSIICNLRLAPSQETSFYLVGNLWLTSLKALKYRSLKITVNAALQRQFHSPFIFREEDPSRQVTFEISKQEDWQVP
T4 sequence (P09055 21-728 limits assumed, chain 2 of 2): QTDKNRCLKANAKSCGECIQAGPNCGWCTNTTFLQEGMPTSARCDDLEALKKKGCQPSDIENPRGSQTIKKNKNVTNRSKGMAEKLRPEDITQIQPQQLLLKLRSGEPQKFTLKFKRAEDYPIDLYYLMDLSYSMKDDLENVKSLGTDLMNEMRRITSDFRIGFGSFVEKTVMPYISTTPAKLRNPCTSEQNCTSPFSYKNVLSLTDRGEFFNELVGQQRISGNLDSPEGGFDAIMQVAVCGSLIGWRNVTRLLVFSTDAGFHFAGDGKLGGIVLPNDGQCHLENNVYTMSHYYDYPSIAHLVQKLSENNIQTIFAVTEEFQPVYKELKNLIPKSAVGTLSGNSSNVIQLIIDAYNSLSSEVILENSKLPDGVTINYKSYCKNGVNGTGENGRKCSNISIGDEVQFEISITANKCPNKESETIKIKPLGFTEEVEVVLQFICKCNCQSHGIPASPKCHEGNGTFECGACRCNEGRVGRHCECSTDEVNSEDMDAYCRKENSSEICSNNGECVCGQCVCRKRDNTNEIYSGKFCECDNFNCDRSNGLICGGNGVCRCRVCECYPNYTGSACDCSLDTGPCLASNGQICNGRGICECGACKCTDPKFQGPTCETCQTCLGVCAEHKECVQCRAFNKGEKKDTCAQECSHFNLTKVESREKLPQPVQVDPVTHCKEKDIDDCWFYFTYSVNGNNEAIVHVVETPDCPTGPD

| binding result [1] | binding result (recombinant human α11β1) | binding result (recombinant mouse α11β1) | binding result [2] | Binder |
| --- | --- | --- | --- | --- |
| binds | binds | no binding |  | 9-B11 (antibody, V domains shown, mouse hybridoma IgG) VH: QVQLQQPGAELVRPGTSVKLSCKASGYTFTSYWMHWVQQRPGQGLEWIGVIDPSDSYTNYNQKFKGKATLTVDTSSSSAYMQLSSLTSEDSAVYYCARDDVAMDYWGQGTSVTVSS VL: DIVVTQSPASLAVSLGQRATISCRASESVDSYGNSFIHWYQQKPGQPPKLLIYRASNLKSGIPARFSGSGSRTDFTLTINPVEADDVATYYCQQSNEDPYTFGGGTKLEIK |
|  | binds | binds | no binding | 3-G5 (antibody, V domains shown, mouse hybridoma IgG) VH: QVQLQQSGAELARPGASVKLSCKASGYTFTSYGISWVKQRTGQGLEWIGEIFPRSSNTYYNEKFKGKATLTADKSSSTVYMEFRSLTSEDSAVYFCAREGGLAWFAYWGQGTLVTVSA VL: DVVMTQTPLTLSVTIGQPASISCKSSQSLLYTNGNTYLNWLLQRPGQSPKRLIYLVSKLDSGIPDRFSGSGSGTDFTLRISRVEAEDLGVYYCLQSTHFPFTFGSGTKLEIK |
|  | binds | no binding | no binding | 6-O12 (antibody, V domains shown, mouse hybridoma IgG) VH: EVKLEESGGGLVQPGGSMKLSCAASGFTFSDAWMDWVRQSPEAGLEWVAEIRNKAHNPATYYAESVKGRFTISRDDSKSSVYLQMNSLRAEDTGIYYCTLVAPDAMDYWGQGTSVTVSS VL: DIVMSLSPSSLAVSVGEKVTMSCKSSQSLLYSRNQKNYLAWYQQKPGQSPKLLIYWASTRASGVPDRFTGSGSGTDFTLTISSVKAEDLAVYYCQQYYSYPYTFGGGTKLEIK |
| binds | binds | binds |  | 10-F23 (antibody, V domains shown, mouse hybridoma IgG) VH: QVTLKESGPGILQPSQTLSLTCSFSGFSLSTFAMGVGWIRQPSGKGLEWLAHIWWDDDKYYNPALKSRLTISKDTSKNHVFLKIANVDTADTATYYCARMPLTFYFDYWGQGTTLTVSS VL: DVLLTQTPLSLPVSLGDQASISCRSSQSIVHSNGHTYLEWYLQKPGQSPKLLIYKVSNRFSGVPDRFSGSGSGTDFTLKISRVEAEDLGVYYCFQGSHVPFTFGGGTKLEIK |
| binds | binds | binds |  | 6-A12 (antibody, V domains shown, mouse hybridoma IgG) VH: QVTLKESGPGILQPSQTLSLTCSFSGFSLRTFAMGVGWIRQPSGKGLEWLAHIWWDDDKYYNPALKSRLTISKDTSKNQVFLKIANVDTADTATYYCARMPLTFYFDYWGQGTTLTVSS VL: DVLMTQTPLSLPVSLGDQASISCRSSQSIVHSNGNTYLEWYLQKPGQSPKLLIYKVSTRFSGVPDRFSGSGSGTDFTLKISRVEAEDLGVYYCFQGSHVPFTFGGGTKLEIK |
|  | binds | binds |  | 10-L15 (antibody, V domains shown, mouse hybridoma IgG) VH: QVQLQQSGPELVRPGASVKMSCKASGYTFTSYWMHWVKQRPGQGLEWIGMIDPSNSETWLNQKFKDKATLNVDKSSNTAYMQLSSLTSEDSAVYYCARYDGYYDYWGQGTTLTVSS VL: NIVLTQSPASLAVSLGQRATISCRASESVDSYGNSFMHWYQQKPGQPPKLLIYLASNVESGVPARFSGSGSRTDFTLTIDPVEADDAATYYCQQNNEDPWTFGGGTKLEIK |
| binds | binds | binds |  | 7-O8 (antibody, V domains shown, mouse hybridoma IgG) VH: EVQLQQSGPELVKPGASVKMSCKASGYTFTDYYIHWVKQKPGQGLEYIGEIYPGSGNTYYNGKFRGKATLTADKSSSTAYMQLSSLTSEDSAVYFCGSGYFDYWGQGTTLTVSS VL: not shown |
|  | binds | no binding | no binding | 6-P20 (antibody, V domains shown, mouse hybridoma IgG) VH: EVQLQQSGPELVKPGASVKISCKASGYTFTDYYMNWVKQSHGRSLELIGDINPNNGGSNFNQKFRGKATLTVDKSSSTAYMELRSLTSEDSAIYYCARMGYWGQGTLVTVSA VL: not shown |
|  | binds | no binding |  | 8H8E9 (antibody, V domains shown, rat hybridoma mAb) VH: QVQLKESGPGLVQPSQTLSLTCTVSGFSLTSNSVSWVRQAPGKGLEWMGAIWSGGSTDYNSALKSRLSISRDTSKSQVFLKMNSLQTEDTAIYFCTRSHWEPFDYWGQGVMVTVSS VL: DIVMTQSPFSLAVSEGEMVTINCKSSQGLLSSGNQKNYLAWYQQRPGQSPKLLIYYASTRQSGVPDRFIGGGSGTDFTLTISDVQAEDLADYYCLQHYSYPPTFGSGTKLEIK |
|  | binds | no binding |  | 6E5C11 (antibody, V domains shown, rat hybridoma mAb) VH: QVQLRESGPGLVQPSQTLSLTCTVSGFSLTSNSVTWVRQPPGKGLEWMGAIWSDGSTDYNSTLKSRLSISRDTSKSQVFLKMSSLQTEDTAIYFCTRSHWEPFDYWGQGVMVTVSS VL: DIVMTQSPLSLAVSEGETVTMNCKSSQSLFSSGNQKNYLAWYQQKPGQSPKLLIYYASTRQSGVPDRFIGSGSGTDFTLTISDVQTEDLADYYCLQHYNYPPTFGSGTKLEIK |
|  | binds | no binding | no binding | 6-M8 (antibody, V domains shown, mouse hybridoma IgG) VH: QVQLQQPGAELVMPGASVKLSCKASGYTFTNYWMHWVKQRPGQGLEWIGEIDPSDSYTNYNQKFKGKATLTVDKSSSTAYMQLSSLTSEDSAVYYCTRQGSTYAWGQGTSVTVSS VL: DIVMTQAAFSNPVTLGTSASISCRSSKSLLHSNGITYLYWYLQKPGQSPQLLIYQMSNLASGVPDRFSSSGSGTDFTLRISRVEAEDVGVYYCAQNLELPPTFGGGTKLEIK |
|  | binds | no binding | no binding | 18E10F10 (antibody, V domains shown, rat hybridoma mAb) VH: EVQLVESGGGLVQPGRSLKLSCAASRFTFSDYNMAWVRQAPKKGLEWVATIYHDDSGSYYRDSVKGRFTISRNNAKSTLYLQMDSLRSEDMATYYCARHNNGFDYWGQGVMVTVAS VL: DVVMTQTPVSLPVRLGGQASISCRSSQSLVHSNGNTYLHWYLQKPGQSPQLLINRVSNRFSGVPDRFSGSGSGTDFTLKINRVEPEDLGDYYCLQSTHFPLTFGSGTKLETK |
|  | binds | binds | no binding | 6-B21 (antibody, V domains shown, mouse hybridoma IgG) VH: EVQLQQSGPELVKPGASVKISCKASGYTFTDYYMNWVKQSHGKSLEWIGDINPHNGGTSFIQKFKGKATLTVDKSSSTAYMELRSLTSEDSAVYYCAPLGRKEGFAYWGQGTLVTVSA VL: DTVLTQSPASLVVSLGQRATISCRASKSVSTSGYSYMHWYQQKPGQPPKLLIYLASNLESGVPARFSGSGSGTAFTLNIHPVEEEDAATYYCQHSRELPYTFGGGTKLEIK |
| binds | binds | binds | no binding | 10-K10 (antibody, V domains shown, mouse hybridoma IgG) VH: EVQLQQSGPELVKPGASVKMSCKASGYTITDYYMMWLKQSHGKSLEWIGDINPYTGGTSYNQKFKGKATLTVDKSSSTAYMQLNSLTSEDSAVYYCARGAYWGQGTTLTVSS VL: not shown |
|  | binds | binds | no binding | 2-A3 (antibody, V domains shown, mouse hybridoma IgG) VH: EVQLQQSGPELVKPGASVKMSCKASGYTFTDYYMMWVKQSHGKSLEWIGDINPYNGGSSYNPKFKGRATLTVDKSSSTAYMQLNSLTSEDSAVYYCARGTYWGQGTLVTVSA VL: not shown |
|  | binds | binds | no binding | 6-A15 (antibody, V domains shown, mouse hybridoma IgG) VH: EVQLQQSGPELVKPGASVKMSCKASGYTITDYYMMWLKQSHGKSLEWIGDINPYTGGTSYNQKFKGKATLTVDKSSSTAYLQLHSLTSEDSAVYYCARGAYWGQGTTLTVSS VL: not shown |
